Assay results: patent publication US12227771B2, “Expression systems and methods of use thereof” (Janssen Pharmaceutica NV, priority 2019, dated 2025)

Target: T1, human α9α10 nAChR (Homo sapiens, UniProt Q9GZZ6+Q9UGM1)
T1 construct: expressed in transfected cells; host or cells: HEK293T
Assay: FLIPR calcium assay of HEK293T cells co-transfected with α9α10 nAChR and cDNA clones, response evoked by 200 μM ACh
Type: cell-based
Conditions: 200 μM ACh; for FLIPR Response (Fold/Baseline): 180 s; for functional expression of co-transfected α9α10 nAChR in cDNA library screen: HEK293T, 20,000 cDNA clones
Experimental: Human embryonic kidney 293T (HEK293T) cells were cultured in high glucose DMEM medium supplemented with 10% FBS, sodium pyruvate and penicillin/streptomycin. Prior to transfection, cells were seeded at ˜80-90% confluence in 384-well fluorescence imaging plate reader (FLIPR) assay plates. After a 4 hour (hr) incubation, wells of cells were individually co-transfected with human α9α10 nAChR plus one of 20,000 clones from cDNA libraries encoding most all human proteins (Origene Technologies; Rockville, Md.; Broad Institute; Cambridge, Mass.) using Fugene HD (Promega; Madison, Wis.) according to the manufacture's protocol. After two days incubation, cells were washed three times with assay buffer (137 mM NaCl, 4 mM KCl, 2 mM CaCl2, 1 mM MgCl2, 5 mM glucose, 10 mM HEPES pH7.4) and loaded with Calcium5 dye (Molecular Devices; San Jose, Calif.) and 1.25 mM probenecid for 1 hr at room temperature (RT). After three washes, the plates were placed in the FLIPR stage.
To further characterize the regulation of α9α10 nAChR expression, HEK293T cells were co-transfected with α9α10 nAChR and each of CHAT, TMIE, TMEM100, TMEM132A, TMEM132C, TMEM132D, TMEM132E and TNFRSF10A individually and in combination (Table 2).

[1] = HEK293T co-transfected with α9α10 nAChR + CHAT plus the named gene
[2] = HEK293T co-transfected with α9α10 nAChR plus the named gene

T1 sequence (Q9UGM1 23-479): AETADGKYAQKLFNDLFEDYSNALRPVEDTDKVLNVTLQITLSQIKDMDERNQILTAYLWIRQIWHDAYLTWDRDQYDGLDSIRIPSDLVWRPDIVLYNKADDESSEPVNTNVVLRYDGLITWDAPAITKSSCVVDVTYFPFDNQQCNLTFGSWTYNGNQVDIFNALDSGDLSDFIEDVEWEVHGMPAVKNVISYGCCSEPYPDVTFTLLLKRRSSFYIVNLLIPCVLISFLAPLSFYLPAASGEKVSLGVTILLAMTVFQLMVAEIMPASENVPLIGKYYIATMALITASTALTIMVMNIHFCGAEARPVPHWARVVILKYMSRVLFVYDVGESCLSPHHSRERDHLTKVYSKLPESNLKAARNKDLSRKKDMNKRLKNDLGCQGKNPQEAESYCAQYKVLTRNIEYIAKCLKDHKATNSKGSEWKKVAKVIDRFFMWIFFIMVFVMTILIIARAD
T1 sequence (Q9GZZ6 25-450): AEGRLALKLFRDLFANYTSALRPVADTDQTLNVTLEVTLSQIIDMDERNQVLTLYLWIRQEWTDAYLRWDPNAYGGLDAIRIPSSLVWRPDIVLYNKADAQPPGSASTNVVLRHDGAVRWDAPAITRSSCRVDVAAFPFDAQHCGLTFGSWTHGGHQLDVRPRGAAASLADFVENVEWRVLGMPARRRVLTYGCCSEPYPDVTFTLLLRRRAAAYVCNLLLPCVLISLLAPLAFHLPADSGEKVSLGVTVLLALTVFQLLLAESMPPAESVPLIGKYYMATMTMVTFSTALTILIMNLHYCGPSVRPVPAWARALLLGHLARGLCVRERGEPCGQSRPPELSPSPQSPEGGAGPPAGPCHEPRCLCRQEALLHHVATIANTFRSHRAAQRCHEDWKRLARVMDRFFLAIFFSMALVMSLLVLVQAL

Molecule	FLIPR Response (Fold/Baseline) [1]	FLIPR Response (Fold/Baseline) [2]	functional expression of co-transfected α9α10 nAChR in cDNA library screen
TMEM132E: Transmembrane protein 132E, SEQ ID NO: 8, co-transfected cDNA clone (protein, listed as Homo sapiens) MAPGMSGRGGAALLCLSALLAHASGRSHPASPSPPGPQASPVLPVSYRLSHTRLAFFLREARPPSPAVANSSLQRSEPFVVFQTKELPVLNVSLGPFSTSQVVARELLQPSSTLDIPERLTVNWKVRAFIVRSHVPASQPVVQVLFYVAGRDWDDFGVTERLPCVRLHAFRDAREVKSSCRLSGGLATCLVRAELPLAWFGPPAPAAPPTARRKSPDGLEPEATGESQQAELYYTLHAPDASGGCGGSRRGAGPGVGARAESPTQHPLLRIGSISLFRPPPRRTLQEHRLDSNLMIRLPDRPLKPGEVLSILLYLAPNSSSPSSPSVEHFTLRVKAKKGVTLLGTKSRSGQWHVTSELLTGAKHSTATVDVAWAQSTPLPPREGQGPLEILQLDFEMENFTSQSVKRRIMWHIDYRGHGALPDLERAVTELTVIQRDVQAILPLAMDTEIINTAILTGRTVAIPVKVIAIEVNGLVLDISALVECESDNEDIIKVSSSCDYVFVSGKESRGSMNARVTFRYDVLNAPLEMTVWVPKLPLHIELSDARLSQVKGWRVPILPDRRSVRESEDEDEEEEERRQSASRGCTLQYQHATLQVFTQFHTTSSEGTDQVVTMLGPDWLVEVTDLVSDFMRVGDPRVAHMVDSSTLAGLEPGTTPFKVVSPLTEAVLGETLLTVTEEKVSITQLQAQVVASLALSLRPSPGSSHTILATTAAQQTLSFLKQEALLSLWLSYSDGTTAPLSLYSPRDYGLLVSSLDEHVATVTQDRAFPLVVAEAEGSGELLRAELTIAESCQKTKRKSVLATTPVGLRVHFGRDEEDPTYDYPGPSQPGPGGGEDEARGAGPPGSALPAPEAPGPGTASPVVPPTEDFLPLPTGFLQVPRGLTDLEIGMYALLGVFCLAILVFLINCIVFVLRYRHKRIPPEGQTSMDHSHHWVFLGNGQPLRVQGELSPPAGNPLETVPAFCHGDHHSSGSSQTSVQSQVHGRGDGSSGGSARDQAEDPASSPTSKRKRVKFTTFTTLPSEELAYDSVPAGEEDEEEEEDLGWGCPDVAGPTRPTAPPDLHNYMRRIKEIA	2.6 Fold/Baseline	0.7 Fold/Baseline	enabled functional expression
TMEM100: Transmembrane protein 100, SEQ ID NO: 9, co-transfected cDNA clone (protein, listed as Homo sapiens) MTEEPIKEILGAPKAHMAATMEKSPKSEVVITTVPLVSEIQLMAATGGTELSCYRCIIPFAVVVFIAGIVVTAVAYSFNSHGSIISIFGLVVLSSGLFLLASSALCWKVRQRSKKAKRRESQTALVANQRSLFA	3.0 Fold/Baseline	0.6 Fold/Baseline	enabled functional expression
